We go through 1 substance from PMC6413200.

This assay deals with pGE-LysRS-6xhis-SPARC fusion protein (not stated | Clonorchis sinensis). Description: SEC; Ni-affinity fractions on a Superdex 200 Increase 10/300 GL or a Superose 6 Increase 10/300 column; 50 mM Tris-Cl (pH 7.5), 300 mM NaCl; 0.3 mL/min; molecular weight estimated from elution; samples from sonication and from mild lysis.

As usually defined, the stoichiometry N is the number of molecules, sites or subunits per partner or assembly. pGE-LysRS-6xhis-SPARC fusion protein: the stoichiometry N was 2.
